Laboratory results from the RNAGym collection of RNA variant scans (doi:10.7554/elife.80360).

B1: Twister Ribozyme (parent)
chain: AACACUGCCAAUGCCGGUCCCAAGCCCGGAUAAAAGUGGAGGGGGCGG

Variants of: B1
Experiment: self-cleavage, relative activity (ratio to wild type); higher = more cleavage; co-transcriptional
Variant C5G A34G has a self-cleavage of 0.384.
With C5A C25G the self-cleavage was 0.0605.
Work on A4G G42U yielded a self-cleavage of 0.195.
In the case of A4G G42A, the self-cleavage is reported as 0.289.
With C5G C46A the self-cleavage was 0.776.
With C5G C46U the self-cleavage was 0.77.
With A4G G24C the self-cleavage was 0.0502.
For A4G G24A, the self-cleavage was 0.0846.
For C5U C46U, the self-cleavage was 0.825.
C5U C46G gave a self-cleavage of 0.776.
With A4U G38C the self-cleavage was 0.252.
For A4U G38U, the self-cleavage was 0.138.
In the case of A4U A34G, the self-cleavage is reported as 0.0772.
Work on A4U G24U yielded a self-cleavage of 0.0752.
Work on C5A A11G yielded a self-cleavage of 0.479.
A4U A33U showed a self-cleavage of 0.0597.
In the case of A4U A33C, the self-cleavage is reported as 0.0899.
C5A G41A gave a self-cleavage of 0.107.
Variant C5A G41U has a self-cleavage of 0.132.
C5U G41A gave a self-cleavage of 0.214.
For A4U U31G, the self-cleavage was 0.161.
With A4U U31A the self-cleavage was 0.143.
C5U A10U showed a self-cleavage of 0.816.
With C5U A10G the self-cleavage was 0.869.
Work on C5U A10C yielded a self-cleavage of 1.06.
With C5G A11G the self-cleavage was 0.696.
In the case of C5G A11U, the self-cleavage is reported as 0.665.
A4G G36A showed a self-cleavage of 0.385.
C5G G38A showed a self-cleavage of 0.298.
Variant C5G A33U has a self-cleavage of 0.662.
With C5G A33C the self-cleavage was 0.565.
Work on C5U C20G yielded a self-cleavage of 0.102.
C5U A11C showed a self-cleavage of 0.541.
In the case of C5U A11U, the self-cleavage is reported as 0.564.
Variant A4G A40C has a self-cleavage of 0.0709.
Variant C5U G17C has a self-cleavage of 0.0605.
In the case of C5U G17U, the self-cleavage is reported as 0.116.
In the case of C5G G43C, the self-cleavage is reported as 0.122.
For C5G G43A, the self-cleavage was 0.153.
For C5G G43U, the self-cleavage was 0.136.
For C5G G28U, the self-cleavage was 0.279.
C5G G28C gave a self-cleavage of 0.212.
In the case of C5G G47A, the self-cleavage is reported as 0.547.
With C5A C14G the self-cleavage was 0.0565.
C5A G43C showed a self-cleavage of 0.118.
Work on A4U G28A yielded a self-cleavage of 0.0702.
In the case of A4U G13A, the self-cleavage is reported as 0.0571.
A4C G48C gave a self-cleavage of 0.31.
For A4C G48A, the self-cleavage was 0.134.
For C5G G29C, the self-cleavage was 0.306.
Variant C5G G29A has a self-cleavage of 0.458.
C5G G29U showed a self-cleavage of 0.584.
With C5U G36U the self-cleavage was 0.644.
With C5A C15G the self-cleavage was 0.0768.
C5A C15A gave a self-cleavage of 0.214.
Variant A4G C20G has a self-cleavage of 0.128.
Work on C5A C19U yielded a self-cleavage of 0.424.
Work on C5A C19A yielded a self-cleavage of 0.0624.
For C5A A30U, the self-cleavage was 0.498.
C5G C14U gave a self-cleavage of 0.793.
Variant A4U U6C has a self-cleavage of 0.0522.
A4U U6G showed a self-cleavage of 0.0301.
A4G G17C showed a self-cleavage of 0.0548.
With A4C U6G the self-cleavage was 0.0323.
Work on A4C U6C yielded a self-cleavage of 0.0627.
With A4U C26U the self-cleavage was 0.0595.
Variant A4U C26G has a self-cleavage of 0.0523.
Variant A4U C20U has a self-cleavage of 0.0245.
Work on A4U C20G yielded a self-cleavage of 0.0603.
C5A G17A gave a self-cleavage of 0.0903.
Variant C5A G17U has a self-cleavage of 0.0729.
A4G G13C gave a self-cleavage of 0.244.
Variant A4G G13U has a self-cleavage of 0.327.
Work on A4G A10U yielded a self-cleavage of 1.04.
For C5G C21G, the self-cleavage was 0.155.
For C5U A30C, the self-cleavage was 0.542.
Variant C5A C26U has a self-cleavage of 0.0777.
With C5A C26G the self-cleavage was 0.0639.
For C5A C26A, the self-cleavage was 0.1.
Variant A4C G47U has a self-cleavage of 0.121.
A4G G7A gave a self-cleavage of 0.169.
For A4G G7C, the self-cleavage was 0.0363.
C5U G16C gave a self-cleavage of 0.159.
C5U G16A showed a self-cleavage of 0.584.
For C5U C25A, the self-cleavage was 0.0792.
In the case of C5G C26A, the self-cleavage is reported as 0.126.
For C5G C26U, the self-cleavage was 0.104.
For A4U A10G, the self-cleavage was 0.125.
With C5U C15G the self-cleavage was 0.0698.
For C5U C15A, the self-cleavage was 0.385.
For C5U C15U, the self-cleavage was 0.762.
For C5A C9G, the self-cleavage was 0.0413.
With C5A A35G the self-cleavage was 0.328.
C5A A35U gave a self-cleavage of 0.508.
Variant C5U C27U has a self-cleavage of 0.483.
In the case of C5U G24A, the self-cleavage is reported as 0.058.
Variant C5U G24C has a self-cleavage of 0.0979.
Work on A4U G36U yielded a self-cleavage of 0.0439.
For A4U G36A, the self-cleavage was 0.056.
C5A A32G showed a self-cleavage of 0.542.
C5G C27G showed a self-cleavage of 0.0623.
C5A A34G showed a self-cleavage of 0.41.
With C5A U12C the self-cleavage was 0.462.
For C5A U12A, the self-cleavage was 0.764.
Work on C5A G36A yielded a self-cleavage of 0.583.
With C5A G36U the self-cleavage was 0.689.
Work on A4G C9A yielded a self-cleavage of 0.698.
A4G U12C gave a self-cleavage of 0.811.
C5A A10U showed a self-cleavage of 0.39.
Variant C5A A10G has a self-cleavage of 0.705.
In the case of C5A C8G, the self-cleavage is reported as 0.106.
Variant A4C G42A has a self-cleavage of 0.0686.
C5G U12C gave a self-cleavage of 0.896.
Work on C5G U12A yielded a self-cleavage of 0.821.
For A4U G42U, the self-cleavage was 0.0714.
C5U G29A gave a self-cleavage of 0.739.
C5U A40U gave a self-cleavage of 0.146.
For A4G G45C, the self-cleavage was 0.294.
For A4G G45U, the self-cleavage was 0.741.
In the case of C5U G13C, the self-cleavage is reported as 0.13.
In the case of C5G A35U, the self-cleavage is reported as 0.637.
Variant A4U G39U has a self-cleavage of 0.0721.
Variant A4U G39C has a self-cleavage of 0.0848.
With C5U C8G the self-cleavage was 0.132.
With C5U C8A the self-cleavage was 0.193.
A4C U31G gave a self-cleavage of 0.177.
Variant A4C U31A has a self-cleavage of 0.182.
Variant C5A G42U has a self-cleavage of 0.138.
Work on A4G G38U yielded a self-cleavage of 0.947.
A4G G38C showed a self-cleavage of 0.918.
A4G G29U gave a self-cleavage of 0.851.
In the case of A4G G29C, the self-cleavage is reported as 0.571.
For C5G G7C, the self-cleavage was 0.0519.
In the case of A4U U37A, the self-cleavage is reported as 0.7.
Work on A4U U37G yielded a self-cleavage of 0.624.
Variant C5G C25U has a self-cleavage of 0.411.
Variant A4U G16A has a self-cleavage of 0.0873.
Work on C5G G16U yielded a self-cleavage of 0.0938.
C5G G16C gave a self-cleavage of 0.0784.
Work on C5U G48C yielded a self-cleavage of 0.883.
Variant C5G G17A has a self-cleavage of 0.0746.
Variant C5G U37A has a self-cleavage of 0.404.
For A4C G39C, the self-cleavage was 0.0869.
A4C G39U showed a self-cleavage of 0.0723.
In the case of C5U C9G, the self-cleavage is reported as 0.342.
Work on C5A C46G yielded a self-cleavage of 0.689.
In the case of C5A G47A, the self-cleavage is reported as 0.523.
Variant C5A G47C has a self-cleavage of 0.199.
In the case of A4G A33U, the self-cleavage is reported as 0.858.
In the case of C5A U18C, the self-cleavage is reported as 0.106.
Work on C5U G43A yielded a self-cleavage of 0.141.
C5G G24C gave a self-cleavage of 0.118.
C5G G24U gave a self-cleavage of 0.112.
For A4G G47C, the self-cleavage was 0.386.
For A4G A11U, the self-cleavage was 0.996.
Work on A4G A11C yielded a self-cleavage of 0.663.
Variant A4C G44A has a self-cleavage of 0.165.
Work on A4U G43A yielded a self-cleavage of 0.0748.
A4U G43U showed a self-cleavage of 0.0514.
Variant C5A G7U has a self-cleavage of 0.0804.
Work on C5A G7C yielded a self-cleavage of 0.0608.
In the case of A4G G41C, the self-cleavage is reported as 0.181.
A4G G41A showed a self-cleavage of 0.244.
Work on A4U G29U yielded a self-cleavage of 0.094.
Variant A4U G29C has a self-cleavage of 0.0635.
For A4U C27G, the self-cleavage was 0.115.
In the case of A4U C27U, the self-cleavage is reported as 0.0803.
